Source: the supplement of paper PMC10567573

B1: BCL2L13 (parent)
chain: QSLDQEILLKVKTEIEEELKSLDK
B2: RAD51 (parent)
chain: RFLRMLLRLADEFGVAVVITNQVV

Variants of: B1
Assay: protein stability index of a GFP-peptide fusion (GPS, HEK-293T) (PSI 1-6); higher = more stable
Settings: c terminus: a fixed tail appended
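Further: lentivirally expressed fusions sorted by FACS into six bins by GFP to DsRed ratio, PSI derived from sequencing read proportions per bin multiplied by bin number.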

Variant	protein stability index
L3F	4.87
L3K	4.88
L3D	5.72
K12S	4.61
K12P	5.38
K12M	1.81
K12D	4.08
K12Y	4.27
S21D	5.47
S21V	4.73
S21I	4.77
S21W	3.57
S21R	4.42
E18S	4.61
E18W	2.8
E18C	3.41
E18T	3.92
S2I	4.91
S2W	1.48
S2E	5.52
S2P	4.71
I7V	5.62
I7M	5.3
I7Q	5.12
I7L	5.32

Variant	protein stability index
I7D	5.68
V11K	5.99
V11R	5.33
V11I	4.19
V11Q	5.54
V11H	4.56
E16A	4.6
E16P	4.69
E16M	3.09
K10T	4.84
K10E	5.2
K10Q	5.35
K10W	3.15
E6T	4.62
E6M	3.71
E6Q	4.56
E6Y	3.47
E6S	4.79
E6L	3.58
L9T	5.25
L9F	4.66
L9M	4.49
L9H	5.39
L9Y	4.45
Q5E	4.8

Variant	protein stability index
Q5C	4.67
Q5V	3.62
Q5P	4.4
Q5K	4.7
Q5S	4.51
D23R	3.78
D23N	4.04
D23A	2.63
D23M	2.33
D23E	4.29
D23H	3.7
D23T	4.47
L8P	5.17
L8C	5.55
L8M	5.37
L8Q	5.42
L8S	5.18
L8D	5.83
L8K	4.75
D4R	3.63
D4M	2.83
D4C	4
D4S	4.42
T13A	3.97
T13Q	3.67

Variant	protein stability index
T13G	4.06
L19I	4.65
L19E	5.71
E14A	3.4
E14I	2.92
E14S	4.99
K20A	5.08
K20P	5.35
L22P	5.67
L22H	5.47
L22A	4.81
K24T	4.79
K24F	4.89
K24H	4.36
Q1D	4.78
Q1K	4.38
Q1I	3.44
I15C	5.12
I15D	5.89
I15K	5.41
I15H	5.29
E17S	4.81
E17H	4.51
E17V	2.69
E17Q	4.56

Variants of: B2
Assay: as above
Settings: c terminus: a fixed tail appended

Variant	protein stability index
Q22E	3.17
Q22K	1.39
R1D	2
T20G	1.98
T20V	2.82
A16M	3.12
A10N	2.58
A10E	2.5
A10S	1.65
A10P	2.33
M5C	3.05
M5K	4.13
L9T	2.51
L9R	1.7
R4I	2.45
R4F	2.58
R4Q	1.92
V23L	2.38
V23A	2.66
V23C	2.69
V23D	2.64
V18I	1.87
V18H	3.04

Variant	protein stability index
E12G	1.3
E12H	3.24
E12C	3.13
E12P	2.01
E12T	1.46
E12V	1.94
D11V	2.46
D11E	1.97
D11I	2.43
D11S	2.32
V17M	2.49
V17H	2.9
V17N	2.35
I19Q	1.37
I19D	2.76
F13L	2.56
F13D	3.29
G14R	2.06
L7Y	2.13
L7R	1.49
L7C	2.54
L7N	1.71
L7G	3.06

Variant	protein stability index
L3D	2.04
L3C	1.78
L3V	3.98
V24Y	1.6
V24L	2.03
V24Q	2.83
L6T	3.04
L6Q	4.57
L6F	3.14
L6M	2.02
L6Y	3.5
R8V	2.87
R8H	3.25
R8C	2.36
F2P	2.89
F2K	1.39
V15E	2.08
V15Y	1.8
V15A	1.79
V15G	1.98
V15Q	3.05
